Reference: the Human Domainome abundance scans (Beltran et al. 2025)
± gives the uncertainty stated by the source.

B1: Transcriptional regulator ERG, residues 117 to 197; numbered along this chain, P11308 (parent)
chain: NMTTNERRVIVPADPTLWSTDHVRQWLEWAVKEYGLPDVNILLFQNIDGKELCKMTKDDFQRLTPSYNADILLSHLHYLRE

Variants of: B1
Assay: abundance fitness (aPCA) (normalised: wild type 0, dead -1); higher = more abundant; growth selection in yeast, the domain comes from the species named
Conditions: Homo sapiens

Variant	abundance fitness
R7P	0.049 ± 0.056
R7A	0 ± 0.037
R7S	-0.047 ± 0.045
R7E	0.06 ± 0.045
R7M	0.044 ± 0.053
R7T	0.021 ± 0.048
R7N	-0.09 ± 0.074
R7Y	-0.127 ± 0.076
R7W	-0.053 ± 0.045
R7D	0.037 ± 0.057
R7H	-0.115 ± 0.078
R7L	0.087 ± 0.039
R7K	0.018 ± 0.049
R7V	-0.045 ± 0.038
R7G	-0.003 ± 0.032
R7C	-0.12 ± 0.068
R7I	-0.208 ± 0.074
R7Q	0.016 ± 0.056
I10E	0.21 ± 0.043
I10V	0.03 ± 0.04
I10G	0.227 ± 0.03
I10A	0.124 ± 0.039
I10P	0.214 ± 0.06
I10Q	0.129 ± 0.056

Variant	abundance fitness
I10M	0.038 ± 0.053
I10L	-0.058 ± 0.047
I10T	0.264 ± 0.062
I10D	0.328 ± 0.066
I10W	-0.089 ± 0.049
I10C	-0.026 ± 0.066
I10S	0.116 ± 0.046
I10Y	-0.013 ± 0.1
I10F	-0.06 ± 0.077
I10H	0.138 ± 0.085
I10K	0.109 ± 0.055
I10R	0.093 ± 0.035
N5F	0.075 ± 0.079
N5V	-0.004 ± 0.044
N5R	-0.044 ± 0.037
N5S	-0.119 ± 0.046
N5M	0.085 ± 0.05
N5G	-0.01 ± 0.034
N5W	-0.003 ± 0.049
N5E	0.064 ± 0.047
N5Y	-0.105 ± 0.089
N5K	0.001 ± 0.056
N5C	-0.01 ± 0.066
N5D	0.079 ± 0.068

Variant	abundance fitness
N5P	-0.092 ± 0.058
N5I	0.036 ± 0.092
N5A	-0.06 ± 0.043
N5T	-0.071 ± 0.052
N5H	-0.071 ± 0.078
D14H	-0.146 ± 0.093
D14R	-0.783 ± 0.092
D14K	-0.872 ± 0.19
D14C	-0.085 ± 0.065
D14A	-0.716 ± 0.096
D14M	-0.537 ± 0.11
D14L	-0.771 ± 0.13
D14G	-0.706 ± 0.073
D14I	-0.726 ± 0.2
D14Y	-0.723 ± 0.16
D14N	-0.083 ± 0.07
D14T	-0.417 ± 0.078
D14V	-0.656 ± 0.094
D14F	-0.444 ± 0.12
D14P	-0.898 ± 0.17
D14W	-0.809 ± 0.15
D14E	-0.346 ± 0.089
T3V	-0.08 ± 0.044
T3R	-0.05 ± 0.036

Variant	abundance fitness
T3L	-0.094 ± 0.046
T3Y	-0.141 ± 0.078
T3I	-0.014 ± 0.08
T3D	-0.05 ± 0.066
T3N	-0.025 ± 0.078
T3P	-0.162 ± 0.071
T3H	-0.127 ± 0.086
T3K	-0.109 ± 0.065
T3S	0.055 ± 0.046
T3F	-0.007 ± 0.073
T3M	0.029 ± 0.067
T3Q	-0.043 ± 0.059
T3E	-0.045 ± 0.055
T3G	-0.022 ± 0.035
A13Q	0.11 ± 0.06
A13F	-0.074 ± 0.072
A13G	0.061 ± 0.037
A13L	-0.046 ± 0.045
A13D	0.235 ± 0.063
A13V	-0.01 ± 0.044
A13H	0.045 ± 0.12
A13T	0.108 ± 0.065
A13K	-0.05 ± 0.062
A13P	0.116 ± 0.062

Variant	abundance fitness
A13C	0.009 ± 0.067
A13R	0.043 ± 0.035
A13I	0.056 ± 0.068
A13W	-0.122 ± 0.051
A13N	0.06 ± 0.088
A13Y	-0.075 ± 0.087
A13M	-0.033 ± 0.074
W18A	-0.676 ± 0.09
W18G	-0.895 ± 0.086
W18P	-1.17 ± 0.32
W18H	-1.04 ± 0.46
W18L	-0.979 ± 0.13
W18Y	-0.738 ± 0.16
W18V	-0.937 ± 0.1
W18M	-0.635 ± 0.11
W18F	-0.886 ± 0.25
W18D	-0.923 ± 0.25
W18R	-0.785 ± 0.07
W18K	-0.625 ± 0.11
W18N	-0.994 ± 0.29
W18C	-1.04 ± 0.19
W18Q	-0.578 ± 0.19
W18E	-0.885 ± 0.12
W18S	-0.864 ± 0.13

Variant	abundance fitness
E6A	-0.139 ± 0.043
E6Y	-0.089 ± 0.091
E6H	0.004 ± 0.083
E6D	-0.085 ± 0.073
E6Q	0.002 ± 0.067
E6F	0.002 ± 0.082
E6I	0.007 ± 0.091
E6G	0.031 ± 0.029
E6N	0.017 ± 0.068
E6L	0.006 ± 0.042
E6S	-0.107 ± 0.047
E6R	-0.088 ± 0.036
E6P	0.033 ± 0.06
E6M	0.024 ± 0.059
E6W	0.037 ± 0.041
E6V	-0.142 ± 0.042
E6T	-0.017 ± 0.055
E6C	-0.242 ± 0.058
L17P	-1.08 ± 0.4
L17T	0.154 ± 0.06
L17I	-0.002 ± 0.12
L17Y	-0.097 ± 0.073
L17G	0.074 ± 0.037
L17D	0.091 ± 0.064

Variant	abundance fitness
L17N	0.053 ± 0.08
L17S	0.122 ± 0.051
L17M	0.046 ± 0.059
L17F	-0.295 ± 0.12
L17H	0.045 ± 0.15
L17C	0.042 ± 0.079
L17R	0.039 ± 0.038
L17E	0.093 ± 0.043
L17Q	0.033 ± 0.064
L17V	0.017 ± 0.043
L17W	-0.041 ± 0.051
D21V	-0.077 ± 0.038
D21Q	-0.087 ± 0.051
D21E	0.042 ± 0.04
D21W	-0.141 ± 0.048
D21C	-0.09 ± 0.061
D21K	-0.138 ± 0.054
D21F	0.024 ± 0.074
D21I	-0.035 ± 0.083
D21G	-0.032 ± 0.032
D21Y	-0.186 ± 0.071
D21N	-0.113 ± 0.083
D21L	-0.106 ± 0.04
D21H	-0.09 ± 0.1

Variant	abundance fitness
D21R	-0.051 ± 0.034
D21M	-0.084 ± 0.057
D21T	-0.065 ± 0.053
D21S	-0.008 ± 0.042
D21A	0.004 ± 0.039
V11C	0.106 ± 0.064
V11M	0.087 ± 0.053
V11D	0.013 ± 0.068
V11A	0.102 ± 0.04
V11N	0.063 ± 0.073
V11F	0.078 ± 0.076
V11Y	0.113 ± 0.072
V11Q	-0.017 ± 0.054
V11K	0.029 ± 0.048
V11I	0.102 ± 0.051
V11W	0.2 ± 0.04
V11S	0.104 ± 0.044
V11H	0.321 ± 0.089
V11L	0.067 ± 0.037
V11G	0.05 ± 0.031
V11R	0.209 ± 0.033
V11E	0.056 ± 0.048
P12L	-0.505 ± 0.058
P12A	-0.176 ± 0.047

Variant	abundance fitness
P12F	-0.486 ± 0.099
P12G	-0.136 ± 0.033
P12H	-0.452 ± 0.12
P12I	-1.37 ± 0.5
P12D	-0.042 ± 0.064
P12E	-0.019 ± 0.045
P12S	-0.209 ± 0.049
P12V	-0.631 ± 0.067
P12R	-0.248 ± 0.038
P12M	-0.65 ± 0.1
P12C	-0.644 ± 0.12
P12N	-0.027 ± 0.068
P12W	-0.15 ± 0.044
P12K	-0.215 ± 0.058
P12Y	-0.45 ± 0.12
P12T	-0.343 ± 0.077
T4I	0.054 ± 0.086
T4M	0.146 ± 0.052
T4E	0.035 ± 0.045
T4H	-0.151 ± 0.075
T4C	-0.018 ± 0.059
T4N	-0.028 ± 0.069
T4P	-0.056 ± 0.056
T4K	-0.043 ± 0.058

Variant	abundance fitness
T4G	-0.042 ± 0.032
T4Q	-0.126 ± 0.054
T4Y	-0.04 ± 0.078
T4A	-0.099 ± 0.043
T4D	0.04 ± 0.056
T4L	-0.025 ± 0.044
T4W	0.01 ± 0.047
T4F	0.079 ± 0.062
T4R	-0.149 ± 0.037
R8Y	-0.496 ± 0.11
R8S	-0.117 ± 0.052
R8W	-0.881 ± 0.19
R8H	-0.098 ± 0.073
R8F	-0.076 ± 0.068
R8C	-0.112 ± 0.08
R8E	0.09 ± 0.068
R8D	0.116 ± 0.067
R8T	-0.022 ± 0.053
R8V	-0.478 ± 0.083
R8N	0.028 ± 0.064
R8A	-0.084 ± 0.056
R8Q	-0.011 ± 0.063
R8L	-0.29 ± 0.054
R8K	0.104 ± 0.064

Variant	abundance fitness
R8P	-0.137 ± 0.066
R8I	-0.323 ± 0.077
R8G	-0.207 ± 0.067
R8M	-0.263 ± 0.083
V9W	0.038 ± 0.07
V9I	-0.034 ± 0.044
V9S	0.137 ± 0.036
V9N	0.099 ± 0.044
V9F	0.075 ± 0.045
V9A	0.12 ± 0.045
V9C	0.046 ± 0.063
V9M	0.132 ± 0.049
V9P	0.292 ± 0.051
V9R	0.113 ± 0.043
V9Q	0.243 ± 0.055
V9L	0.096 ± 0.035
V9T	0.054 ± 0.043
V9E	0.207 ± 0.075
V9H	0.034 ± 0.048
V9D	0.269 ± 0.052
V9K	0.16 ± 0.06
V9Y	-0.062 ± 0.044
T16K	-0.05 ± 0.059
T16C	0.028 ± 0.066

Variant	abundance fitness
T16S	-0.064 ± 0.054
T16M	0.02 ± 0.053
T16R	-0.092 ± 0.038
T16Q	-0.171 ± 0.083
T16G	-0.026 ± 0.033
T16I	0.048 ± 0.082
T16Y	0.017 ± 0.081
T16H	0.128 ± 0.09
T16F	-0.008 ± 0.11
T16D	-0.115 ± 0.072
T16P	-0.428 ± 0.11
T16L	0.052 ± 0.046
T16N	-0.061 ± 0.075
T16W	-0.115 ± 0.054
S19R	-0.145 ± 0.036
S19Q	-0.235 ± 0.07
S19F	-0.719 ± 0.23
S19V	-0.716 ± 0.071
S19P	-0.994 ± 0.17
S19Y	-0.798 ± 0.22
S19I	-0.697 ± 0.17
S19L	-0.565 ± 0.069
S19T	-0.073 ± 0.055
S19W	-0.683 ± 0.088

Variant	abundance fitness
S19G	-0.133 ± 0.033
S19H	-0.18 ± 0.1
S19D	-0.014 ± 0.061
S19E	-0.129 ± 0.049
S19A	-0.223 ± 0.047
S19N	-0.008 ± 0.064
S19K	-0.065 ± 0.052
T20L	-0.198 ± 0.05
T20E	0.011 ± 0.041
T20D	-0.206 ± 0.063
T20N	-0.072 ± 0.068
T20R	-0.05 ± 0.035
T20S	-0.053 ± 0.047
T20Q	-0.064 ± 0.052
T20H	-0.012 ± 0.088
T20F	-0.205 ± 0.11
T20W	-0.413 ± 0.061
T20I	-0.11 ± 0.08
T20G	-0.225 ± 0.035
T20M	-0.219 ± 0.071
T20A	0.021 ± 0.039
T20P	0.06 ± 0.058
T20Y	-0.276 ± 0.1
H22E	0.018 ± 0.047

Variant	abundance fitness
H22C	-0.229 ± 0.068
H22D	-0.014 ± 0.057
H22A	-0.286 ± 0.048
P15A	-0.269 ± 0.053
P15V	-0.267 ± 0.047
P15Q	-0.495 ± 0.092
P15I	-0.171 ± 0.072
P15T	-0.632 ± 0.085
P15M	-0.638 ± 0.13
P15E	-0.86 ± 0.15
P15G	-0.803 ± 0.088
P15S	-0.611 ± 0.076
P15F	-0.273 ± 0.085
P15K	-0.915 ± 0.17
P15D	-0.94 ± 0.17
P15C	-0.323 ± 0.069
P15Y	-0.266 ± 0.065
P15L	-0.41 ± 0.056
P15W	-0.516 ± 0.091
P15N	-0.967 ± 0.19
P15R	-0.835 ± 0.09
P15H	-0.86 ± 0.19
